The target in experiment [1] is biotinylated NRP2 (epitope binning) (Homo sapiens, UniProt O60462-3, biotin (site not stated)). In words: BLI.
Experiment [2] deals with T1, human NRP2 (v2, NM_003872.3), untagged, stably overexpressed on Expi293F cells (Expi293F-hNRP2) (human, UniProt O60462-3 21-926).
T1 sequence (looked up): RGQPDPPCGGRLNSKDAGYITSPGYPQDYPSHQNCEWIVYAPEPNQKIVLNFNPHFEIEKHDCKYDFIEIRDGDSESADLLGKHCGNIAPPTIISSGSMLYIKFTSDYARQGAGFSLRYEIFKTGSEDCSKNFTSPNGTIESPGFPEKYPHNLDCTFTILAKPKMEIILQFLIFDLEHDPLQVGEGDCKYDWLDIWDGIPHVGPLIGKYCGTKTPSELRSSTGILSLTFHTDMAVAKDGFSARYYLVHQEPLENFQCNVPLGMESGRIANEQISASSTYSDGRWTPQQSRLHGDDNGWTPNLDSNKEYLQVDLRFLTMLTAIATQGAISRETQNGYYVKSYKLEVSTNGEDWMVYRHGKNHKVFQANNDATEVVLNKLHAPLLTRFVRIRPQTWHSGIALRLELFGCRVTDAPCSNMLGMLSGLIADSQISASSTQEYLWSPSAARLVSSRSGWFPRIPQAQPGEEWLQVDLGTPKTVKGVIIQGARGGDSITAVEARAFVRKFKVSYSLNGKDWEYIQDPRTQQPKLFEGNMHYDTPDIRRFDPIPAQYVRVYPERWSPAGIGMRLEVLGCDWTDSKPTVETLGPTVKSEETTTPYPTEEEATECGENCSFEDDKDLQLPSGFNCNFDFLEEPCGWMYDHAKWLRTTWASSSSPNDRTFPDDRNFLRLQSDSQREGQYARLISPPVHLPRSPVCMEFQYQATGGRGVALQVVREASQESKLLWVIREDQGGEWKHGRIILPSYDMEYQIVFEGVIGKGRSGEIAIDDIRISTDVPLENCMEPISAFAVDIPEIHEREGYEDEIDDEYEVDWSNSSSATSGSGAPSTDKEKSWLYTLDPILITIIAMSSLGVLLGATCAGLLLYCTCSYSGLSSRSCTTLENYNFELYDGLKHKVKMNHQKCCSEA
Kind of experiment: flow cytometry on cells. A general note: Flow cytometry measures light scatter and fluorescence of single cells or particles in a stream.

The target in experiment [3] is His-tagged hNRP2 (amino acids 146 to 595), a2b1b2 domains, for crystallization (human, UniProt O60462-3). Kind of experiment: crystal structure.

B1: Genentech aNRP2B antibody (antibody, V domains shown)
VH: EVQLVESGGGLVQPGGSLRLSCAASGFTITSSGIHWVRQAPGKGLEWVARITPYDGSTDYADSVKGRFTISADTSKNTAYLQMNSLRAEDTAVYYCARYRGRLLFDYWGQGTLVTVSS
VL: not shown
Take B1: in experiment [1], the binding result was “binds”.

B2: recombinant human VEGF-C, untagged (ligand, UniProt P49767 112-227, looked up)
chain: AHYNTEILKSIDNEWRKTQCMPREVCIDVGKEFGVATNTFFKPPCVSVYRCGGCCNSEGLQCMNTSTSYLSKTLFEITVPLSQGPKPVTISFANHTSCRCMSKLDVYRQVHSIIRR
Consider B2, for which, in experiment [2], the midpoint of the response, the EC50, lay at 0.6 nM.

B3: aNRP2-10 Fab (Fab, V domains shown)
VH: EVQLVQSGAEVKKPGATVKISCKVSGFNIKDYYIHWVQQAPGKGLEWMGRIDVEDDETKYAPKFQGRVTITADTSTDTAYMELSSLRSEDTAVYYCATPIYGSREAWFAYWGQGTLVTVSS
VL: DIQMTQSPSSLSASVGDRVTITCTASSSVSSSYLHWYQQKPGKAPKLLIYRTSNLASGVPSRFSGSGSGTDFTLTISSLQPEDFATYYCHQYYRSPPTFGGGTKVEIK
Take B3: the binding result in experiment [3] is on record as “binds”.
